Literature values, collected in patent US8232251B2, “Compounds for delivery of therapeutic and imaging moieties to nerve cells” (Manzanita Pharmaceuticals, Inc., priority 1998, dated 2012).

Biological target: T1, p75 (Homo sapiens, UniProt P08138)
T1 sequence (P08138 29-427): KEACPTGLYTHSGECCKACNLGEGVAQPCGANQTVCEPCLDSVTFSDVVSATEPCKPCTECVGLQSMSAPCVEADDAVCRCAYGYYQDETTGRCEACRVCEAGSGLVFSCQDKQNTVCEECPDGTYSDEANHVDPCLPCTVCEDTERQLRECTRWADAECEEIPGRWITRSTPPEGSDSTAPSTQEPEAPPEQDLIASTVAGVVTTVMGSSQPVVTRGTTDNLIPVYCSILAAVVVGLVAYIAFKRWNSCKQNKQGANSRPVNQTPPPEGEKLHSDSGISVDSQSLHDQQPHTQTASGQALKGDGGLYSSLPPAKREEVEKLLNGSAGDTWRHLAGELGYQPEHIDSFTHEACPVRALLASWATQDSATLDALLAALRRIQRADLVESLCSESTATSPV
Settings: lower affinity binding to more abundant p75

Kd: 1 nM
Substance: NGF: nerve growth factor, first identified member of the neurotrophin family; used as binding agent B
